Reference: US20250326839A1 (VIGIL NEUROSCIENCE, published 2025)

Key:
human TREM2 [1] = target: T1, human TREM2 (human, UniProt Q9NZC2 19-174, limits assumed); test: 2nd screen, 2 nM
T1 construct: also called triggering receptor expressed on myeloid cells 2
T1 sequence: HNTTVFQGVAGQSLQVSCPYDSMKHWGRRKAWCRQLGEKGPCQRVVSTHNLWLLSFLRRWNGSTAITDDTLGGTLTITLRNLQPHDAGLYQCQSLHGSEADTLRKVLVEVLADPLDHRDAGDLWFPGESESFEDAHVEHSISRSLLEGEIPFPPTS

human TREM2 [2] = target: T1, human TREM2; test: 1st screen, 10 nM Ab
human TREM2 [3] = target: T1, human TREM2; test: 2nd screen, 10 nM
human TREM2 [4] = target: T1, human TREM2; test: 1st screen, 110 nM Ab
human TREM2 [5] = target: T1, human TREM2; test: 2nd screen, 100 nM

| Binder | Binding Signal (human TREM2 [1]) | Binding Signal (human TREM2 [2]) | Binding Signal (human TREM2 [3]) | Binding Signal (human TREM2 [4]) | Binding Signal (human TREM2 [5]) |
| --- | --- | --- | --- | --- | --- |
| V1 (antibody, V domains shown, also called 6E7 variant V1) VH: EVQLVQSGAEVKKPGESLKISCKGSGYSFTSSWIAWVRQMPGKGLEWMGIIYPGDSDTRYSPSFQGQVTISADKSISTAYLQWSSLKASDTAMYFCARSRTFYYDSSDYFDYWGQGTLVTVSS VL: DIQMTQSPSSVSASVGDRVTITCRASQGISSWLAWYQQKPGKAPKLLIYAASSLTNGVPSRFSGSGSGTDFTLTISSLQPEDFATYFCQQADSYPRTFGQGTKLEIK | 1.29 fold over 6E7 parental antibody | 1.68 fold over 6E7 parental antibody | 1.92 fold over 6E7 parental antibody | – | – |
| V5 (antibody, V domains shown, also called 6E7 variant V5) VH: EVQLVQSGAEVKKPGESLKISCKGSGYSFTSYWIAWVRQMPGKGLEWMGTIYPGDSDTRYSPSFQGQVTISADKSISTAYLQWSSLKASDTAMYFCARQRTFYYDSSDYFDYWGQGTLVTVSS VL: DIQMTQSPSSVSASVGDRVTITCRASQGISSWLAWYQQKPGKAPKLLIYAASSLQNGVPSRFSGSGSGTDFTLTISSLQPEDFATYFCQQADSHPRTFGQGTKLEIK | 1.25 fold over 6E7 parental antibody | 2.73 fold over 6E7 parental antibody | 2.84 fold over 6E7 parental antibody | – | – |
| V94 (antibody, V domains shown, also called 6E7 variant V94) VH: EVQLVQSGAEVKKPGESLKISCKGSGYSFTSYWIAWVRQMPGKGLEWMGIIYPGDSDTRYSPSFQGQVTISADKSISTAYLQWSSLKASDTAMYFCARQRTFYYDSSDYFDYWGQGTLVTVSS VL: DIQMTQSPSSVSASVGDRVTITCRASQGISSWLAWYQQKPGKAPKLLIYAAASLQNGVPSRFSGSGSGTDFTLTISSLQPEDFATYFCQQADSFPRTFGQGTKLEIK | – | – | – | 0.31 fold over 6E7 parental antibody | 0.87 fold over 6E7 parental antibody |
| V91 (antibody, V domains shown, also called 6E7 variant V91) VH: EVQLVQSGAEVKKPGESLKISCKGSGYSFTSYWIAWVRQMPGKGLEWMGIIYPDDSDTRYSPSFQGQVTISADKSISTAYLQWSSLKASDTAMYFCARQRTFYYDSSDYFDYWGQGTLVTVSS VL: DIQMTQSPSSVSASVGDRVTITCRASQGISSWLAWYQQKPGKAPKLLIYAASSLQNGVPSRFSGSGSGTDFTLTISSLQPEDFATYFCQQADSFPRTFGQGTKLEIK | – | – | – | 0.25 fold over 6E7 parental antibody | 0.61 fold over 6E7 parental antibody |
| V12 (antibody, V domains shown, also called 6E7 variant V12) VH: EVQLVQSGAEVKKPGESLKISCKGSGYEFTSYWIAWVRQMPGKGLEWMGIIYPGDSDVRYSPSFQGQVTISADKSISTAYLQWSSLKASDTAMYFCARGRTFYYDSSDYFDYWGQGTLVTVSS VL: DIQMTQSPSSVSASVGDRVTITCRASQGISSWLAWYQQKPGKAPKLLIYAASSLQRGVPSRFSGSGSGTDFTLTISSLQPEDFATYFCQQADSFPRTFGQGTKLEIK | – | – | 2.58 fold over 6E7 parental antibody | – | – |
| V82 (antibody, V domains shown, also called 6E7 variant V82) VH: EVQLVQSGAEVKKPGESLKISCKGSGYSFTSYWIAWVRQMPGKGLEWMGIIYPGDSDTRYSPSFQGQVTISADKSISTAYLQWSSLKASDTAMYFCARQRTFYYDSSDYFDYWGQGTLVTVSS VL: DIQMTQSPSSVSASVGDRVTITCRASQGISSWLAWYQQKPGKAPKLLIYAGSSLQNGVPSRFSGSGSGTDFTLTISSLQPEDFATYFCQQADSFPRTFGQGTKLEIK | – | – | – | 0.3 fold over 6E7 parental antibody | 0.79 fold over 6E7 parental antibody |
| V90 (antibody, V domains shown, also called 6E7 variant V90; LV-206/HV-206) VH: EVQLVQSGAEVKKPGESLKISCKGSGYSFTSEWIAWVRQMPGKGLEWMGIIYPGDSDTRYSPSFQGQVTISADKSISTAYLQWSSLKASDTAMYFCARQRTFYYDSSDYFDYWGQGTLVTVSS VL: DIQMTQSPSSVSASVGDRVTITCRASQGISRWLAWYQQKPGKAPKLLIYAASSLQNGVPSRFSGSGSGTDFTLTISSLQPEDFATYFCQQADSFPRTFGQGTKLEIK | – | – | – | 0.33 fold over 6E7 parental antibody | 0.36 fold over 6E7 parental antibody |
| V3 (antibody, V domains shown, also called 6E7 variant V3; LV-101/HV-101) VH: EVQLVQSGAEVKKPGESLKISCKGSGYSFASYWIAWVRQMPGKGLEWMGIIYPGDSDTRYSPSFQDQVTISADKSISTAYLQWSSLKASDTAMYFCARGRTFYYDSSDYFDYWGQGTLVTVSS VL: DIQMTQSPSSVSASVGDRVTITCRASQGISSWLAWYQQKPGKAPKLLIYAASSRQNGVPSRFSGSGSGTDFTLTISSLQPEDFATYFCQQADRFPRTFGQGTKLEIK | 1.95 fold over 6E7 parental antibody | 1.97 fold over 6E7 parental antibody | 2.24 fold over 6E7 parental antibody | – | – |
| V13 (antibody, V domains shown, also called 6E7 variant V13) VH: EVQLVQSGAEVKKPGESLKISCKGSGYSFGSYWIAWVRQMPGKGLEWMGIIYPGDSDTRYSASFQGQVTISADKSISTAYLQWSSLKASDTAMYFCARGRTFYYDSSDYFDYWGQGTLVTVSS VL: DIQMTQSPSSVSASVGDRVTITCRASQGISSWLAWYQQKPGKAPKLLIYAASSLQGGVPSRFSGSGSGTDFTLTISSLQPEDFATYFCQQADSMPRTFGQGTKLEIK | 1.15 fold over 6E7 parental antibody | 1.31 fold over 6E7 parental antibody | 1.35 fold over 6E7 parental antibody | – | – |
| V93 (antibody, V domains shown, also called 6E7 variant V93) VH: EVQLVQSGAEVKKPGESLKISCKGSGYSFTSYWIAWVRQMPGKGLEWMGIIYPGDSDTRYSPSFQGQVTISADKSISTAYLQWSSLKASDTAMYFCARQRTFYYDSSDYFDYWGQGTLVTVSS VL: DIQMTQSPSSVSASVGDRVTITCRASQGISGWLAWYQQKPGKAPKLLIYAASSLQNGVPSRFSGSGSGTDFTLTISSLQPEDFATYFCQQADSFPRTFGQGTKLEIK | – | – | – | 0.35 fold over 6E7 parental antibody | 1.05 fold over 6E7 parental antibody |
| V4 (antibody, V domains shown, also called 6E7 variant V4) VH: EVQLVQSGAEVKKPGESLKISCKGSGYSFGSYWIAWVRQMPGKGLEWMGIIYPGDSDTRVSPSFQGQVTISADKSISTAYLQWSSLKASDTAMYFCARSRTFYYDSSDYFDYWGQGTLVTVSS VL: DIQMTQSPSSVSASVGDRVTITCRASQGISSWLAWYQQKPGKAPKLLIYAASRLQNGVPSRFSGSGSGTDFTLTISSLQPEDFATYFCQQADSYPRTFGQGTKLEIK | 5.88 fold over 6E7 parental antibody | 6 fold over 6E7 parental antibody | 5.51 fold over 6E7 parental antibody | – | – |
| V2 (antibody, V domains shown, also called 6E7 variant V2) VH: EVQLVQSGAEVKKPGESLKISCKGSGSSFTSYWIAWVRQMPGKGLEWMGIIYPGDGDTRYSPSFQGQVTISADKSISTAYLQWSSLKASDTAMYFCARSRTFYYDSSDYFDYWGQGTLVTVSS VL: DIQMTQSPSSVSASVGDRVTITCRASQGISSWLAWYQQKPGKAPKLLIYAASSRQNGVPSRFSGSGSGTDFTLTISSLQPEDFATYFCQQADRFPRTFGQGTKLEIK | 2.23 fold over 6E7 parental antibody | 2.55 fold over 6E7 parental antibody | 2.9 fold over 6E7 parental antibody | – | – |
| V92 (antibody, V domains shown, also called 6E7 variant V92) VH: EVQLVQSGAEVKKPGESLKISCKGSGYSFTSYWIAWVRQMPGKGLEWMGIIYPGDSDTRYSPSFQGQVTISADKSISTAYLQWSSLKASDTAMYFCARQRTFHYDSSDYFDYWGQGTLVTVSS VL: DIQMTQSPSSVSASVGDRVTITCRASQGISSWLAWYQQKPGKAPKLLIYAASSLQNGVPSRFSGSGSGTDFTLTISSLQPEDFATYFCQQADSFPRTFGQGTKLEIK | – | – | – | 0.22 fold over 6E7 parental antibody | 0.65 fold over 6E7 parental antibody |
| V83 (antibody, V domains shown, also called 6E7 variant V83) VH: EVQLVQSGAEVKKPGESLKISCKGSGYSFTSYWIAWVRQMPGKGLEWMGIIYPGDSDTRYSPSFQGQVTISADKSISTAYLQWSSLKASDTAMYFCARQRTFYYDSSDYFDYWGQGTLVTVSS VL: DIQMTQSPSSVSASVGDRVTITCRASQGISSWLAWYQQKPGKAPKLLIYAASSLQNGVPSRFSGSGSGTDFTLTISSLQPEDFATYFCQQAVSFPRTFGQGTKLEIK | – | – | – | 0.2 fold over 6E7 parental antibody | 0.29 fold over 6E7 parental antibody |
